doi:10.1101/2023.04.01.535208
One block for each substance: values may come before it.

Columns and labels:
[1] = biological target: chimeric V2R harboring the carboxy-terminal tail of the β2-adrenergic receptor (V2β2AR)
[2] = biological target: vasopressin type 2 receptor (V2R) (UniProt P30518)
[3] = biological target: vasopressin type 2 receptor (V2R) (UniProt P30518); remark: listed apart in the source

potency of AVP for recruitment of Rluc-mGsq to early endosomes (EbBRET with rGFP-Rab5), cells expressing V2β2AR [1]: -7.82 LogEC50
potency of AVP for recruitment of Rluc-mGsq to the plasma membrane (EbBRET with rGFP-CAAX), cells expressing V2β2AR [1]: -7.97 LogEC50
transduction coefficient (operational model) of AVP for recruitment of Rluc-mGs to the plasma membrane, cells expressing V2β2AR [1]: 8.04 Logτ/Ka
transduction coefficient (operational model) of AVP for recruitment of Rluc-mGsq to early endosomes, cells expressing V2β2AR [1]: 7.91 Logτ/Ka
Substance: arginine vasopressin (AVP) (peptide)

AVP-induced maximal efficacy of the AVP dose-response of Rluc-mGs recruitment to early endosomes (EbBRET with rGFP-Rab5), parental HEK293 cells, 45 minutes [2]: 0.18 ΔEbBRET
AVP-induced maximal efficacy of the AVP dose-response of Rluc-mGs recruitment to early endosomes (EbBRET with rGFP-Rab5), Δβarr1/2 HEK293 cells, 45 minutes [2]: 0.074 ΔEbBRET
AVP-induced maximal efficacy of the AVP dose-response of Rluc-mGs recruitment to the plasma membrane (EbBRET with rGFP-CAAX), parental HEK293 cells, 10 minutes [2]: 0.324 ΔEbBRET
AVP-induced maximal efficacy of the AVP dose-response of Rluc-mGs recruitment to the plasma membrane (EbBRET with rGFP-CAAX), Δβarr1/2 HEK293 cells, 10 minutes [2]: 0.376 ΔEbBRET
AVP-mediated maximal efficacy of the AVP dose-response of Rluc-mGs recruitment to early endosomes (EbBRET with rGFP-Rab5), cells expressing V2β2AR [1]: 0.15 ΔEbBRET
AVP-mediated maximal efficacy of the AVP dose-response of Rluc-mGs recruitment to the plasma membrane (EbBRET with rGFP-CAAX), cells expressing V2β2AR [1]: 0.392 ΔEbBRET
AVP-mediated maximal efficacy of the AVP dose-response of Rluc-mGs recruitment to early endosomes (EbBRET with rGFP-Rab5), cells expressing V2R [3]: 0.167 ΔEbBRET
AVP-mediated maximal efficacy of the AVP dose-response of Rluc-mGs recruitment to the plasma membrane (EbBRET with rGFP-CAAX), cells expressing V2R [3]: 0.3 ΔEbBRET
Substance: mini G protein mGs

AVP-induced maximal efficacy of the AVP dose-response of Rluc-mGsq recruitment to early endosomes (EbBRET with rGFP-Rab5), parental HEK293 cells, 45 minutes [2]: 0.05 ΔEbBRET
AVP-induced maximal efficacy of the AVP dose-response of Rluc-mGsq recruitment to early endosomes (EbBRET with rGFP-Rab5), Δβarr1/2 HEK293 cells, 45 minutes [2]: 0.024 ΔEbBRET
AVP-induced maximal efficacy of the AVP dose-response of Rluc-mGsq recruitment to the plasma membrane (EbBRET with rGFP-CAAX), parental HEK293 cells, 10 minutes [2]: 0.168 ΔEbBRET
AVP-induced maximal efficacy of the AVP dose-response of Rluc-mGsq recruitment to the plasma membrane (EbBRET with rGFP-CAAX), Δβarr1/2 HEK293 cells, 10 minutes [2]: 0.18 ΔEbBRET
AVP-mediated maximal efficacy of the AVP dose-response of Rluc-mGsq recruitment to early endosomes (EbBRET with rGFP-Rab5), cells expressing V2β2AR [1]: 0.061 ΔEbBRET
AVP-mediated maximal efficacy of the AVP dose-response of Rluc-mGsq recruitment to the plasma membrane (EbBRET with rGFP-CAAX), cells expressing V2β2AR [1]: 0.183 ΔEbBRET
AVP-mediated maximal efficacy of the AVP dose-response of Rluc-mGsq recruitment to early endosomes (EbBRET with rGFP-Rab5), cells expressing V2R [3]: 0.05 ΔEbBRET
AVP-mediated maximal efficacy of the AVP dose-response of Rluc-mGsq recruitment to the plasma membrane (EbBRET with rGFP-CAAX), cells expressing V2R [3]: 0.161 ΔEbBRET
Substance: mini G protein mGsq
